These results are taken from a protein production outcome set (Wang et al. 2014).

A short description of this data set: label from the status in PepcDB records.
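Note: failed if final PepcDB status was selected cloned or expressed and not failed if soluble or beyond.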

Take “MNIIIATTKSWNIKNAQKFKKENESKYNTTIITNKDELTFEKVKLINPEYILFPHWSWIIPKEIFENFTCVVFHMTDLPFGRGGSPLQNLIERGIKKTKISAIKVDGGIDTGDIFFKRDLDLYGTAEEIFMRASKIIFNDMIPELLTKRPVPQKQEGEATVFQRRKPEQSEISPDFDLEKIYDYIRMLDGEGYPRAFIKYGKYRLEFSRASMKNGKIIADVEIIEGDENE”: the protein production entry is listed as “not failed”. Take “MNIITTDPLFGFVLTVLVFMIGVRINENFRKPWTNPLLFATVVIILILSLAHIPYKNYYIGGSIINDLIGPSTVALGIPLYKTFHLMKHHARSIVSSIAIAALVNCIFTALCAKFFSLSKLASLSIFPKSVTTAMAMGISDKMHGVEQITVVVVVATGILTSVLGGPLLKLFRITDPVAQGIALGGTGHAVGTGTAIELGKTQGAMAALSIGVTGIMYVIFAPIIAKIILGY”: the protein production entry is recorded as “failed”. For “MNIKVTVFHYILDRSYIFLLFIIFISLIFPIISAFISLIFVGLLFQGLYLRRQSSTNSPYIVLEILSMLSLIYAAQFFTHLLKATDIVFLSYLIIISLSLYRLKRIIKKKTNYLQNSKVAFTLLLLAFLLNWFISGFLDLTQGNFSVFGQFGYFSYPFLAIMNFISAFASITASPWFMIDMGIWLGVIGIFRIIEYNKLENKIRYLLMMFAYAFYSIYLPSFSPLQSEVQYIPYMWFNGLGTYGPVRSSYLLDGIIGTFTVTAILSFMFGSRQICSVTCTAPYMLQNTFLNSMKKYNRSSKVGRKTLTSRMSSWYKWVMSITWISLIILAVLSFLKFSILGNDPTMFYTSLYFNVIWYFQFMLMPFLGNYACVNSGICAWGSFNQLFGYLGFFKLKVRDLKQCLNCKTVDCANACPVGLTDMRAWFIKKGEFKSFKCVGVGDCVEVCPYNNITFYDVRSWIKEKLYPIQFKHRGTT”, the protein production entry is given as “failed”. For “MNILLAFKAEPDAGMLAEKEWQAAQGNSGPDVSLLRSLLGADEQAAAALLLAQRKNGTSMSLTALSMGDERALHWLRYLMALGFEDAVLLETAADLRFAPEFVARHIAEWQYQNPLELIITGCQSSEGQNGQTPFLLAEMLGWPCFTQVERFTLDAPFITLEQRTENGLRCCRVRLPAVIAVRQCGEVALPVPGMRQRMAAGKAEIIRKTVAAEMPAMQCLQLARAEQRRGATLIDGQTVAEKAQKLWQYYLCQRMQ”, the protein production entry was “failed”. Under “MNILNNKNKRTSIFKALALCLFAAVSFTFVSCDDDMDIQQSYPFTVETMPVPNKVTKGQTVEIRCELKKTGDFANTLYTIRYFQFEGEGTLKMDNGITFLPNDRYLLENEKFRLYYTAQGDEAHNFIVVVEDNFGNSYELEFDFNNRNVKDDGVITVVPIGNFKPLTR” stands “failed”; under “MNILYNERIDGVLPAVDKQQLLDELRRQLPDLDVLHRTEELRPYECDGLSAYRTTPMLVVLPRHLEEVQTLLRLCHAHRVPVVARGAGTGLSGGALPLEKGVLLVMARFNQILAIDPAARVARVQPGVRNLAISQAAAPHGLYYAPDPSSQIACSIGGNVAENAGGVHCLKYGLTVHNLLKVEILTVEGEAMTLGSDTLDSPGFDLLALFTGSEGMLGIITEVTVKLLPRPQVAKVLLAAFDSVEKAGRAVADIIAAGIIPGGLEMMDNLAIRAAEDFIHAGYPVDAEAILLCELDGVEADVHADCERVREVLTQAGATEVRQAIDEAERVRFWAGRKNAFPAVGRLSPDYYCMDGTIPRRALPGVLRGISELSGQYGLRVANVFHAGDGNMHPLILFDANQPGELQRAEALGGKILELCVEVGGSITGEHGVGREKINQMCAQFNSDELTFFHAIKAAFDASGMLNPGKNIPTLQRCAEFGAMHIHAGQLPFPELERF”, “failed”. Consider “MNINGIKLLSSRAVSKLGDVFYDYGNSTWIASMGGLGQKILGIYQIVELLVSIVLNPFGGALADRFQRRKILLITDAICAIMCFLLSFIGDDKVMVYGLIVANAILAVSNAFSSPAYKSYIPEIVDKADIITYNANLETIVQIISVSSPVLGFLIFNNFGIRITLIVDAITFLISFLFLYAIKVERVQLSKQEKVAIKNILADIADGFTYIKKEKEIMFFLIIAALLNTFLAMFNYLLPFTNSLLKTSGAYATILSISAIGSIIGALIARKIKSSINSMLSMLVFSSLGVIVMGFPSLFELPIWIPYSGSFLFNSLLTMFNIHFFSQVQIRVDEAYMGRVMSTIFTIAIMFMPIGTLFMTIFSFALSNVSFIVIGCAIAILGGLGFSYSKKQF”, for which the protein production result is reported as “failed”. The value for “MNINVAELLNGNYILLLFVVLALGLCLGKLRLGSIQLGNSIGVLVVSLLLGQQHFSINTDALNLGFMLFIFCVGVEAGPNFFSIFFRDGKNYLMLALVMVGSALVIALGLGKLFGWDIGLTAGMLAGSMTSTPVLVGAGDTLRHSGMESRQLSLALDNLSLGYALTYLIGLVSLIVGARYLPKLQHQDLQTSAQQIARERGLDTDANRKVYLPVIRAYRVGPELVAWTDGKNLRELGIYRQTGCYIERIRRNGILANPDGDAVLQMGDEIALVGYPDAHARLDPSFRNGKEVFDRDLLDMRIVTEEVVVKNHNAVGKRLAQLKLTDHGCFLNRVIRSQIEMPIDDNVVLNKGDVLQVSGDARRVKTIADRIGFISIHSQVTDLLAFCAFFVIGLMIGMITFQFSTFSFGMGNAAGLLFAGIMLGFMRANHPTFGYIPQGALSMVKEFGLMVFMAGVGLSAGSGINNGLGAIGGQMLIAGLIVSLVPVVICFLFGAYVLRMNRALLFGAMMGARTCAPAMEIISDTARSNIPALGYAGTYAIANVLLTLAGTIIVMVWPGLG” was “failed”. In the case of “MNIQIILSLIFSMILMACTTSSPQKDLSRICDSSGCSDRSGNYVSNHSSAASSDEEARIRVLEDVARQDPRAAYDLGLRYFRGDGVRQDSYQALQWMREAAERGDLNAQKALGRLYLTGLEEMGADYREAEKWLRIAASRGDKESEQLLVEAAAFASEERRSGEIYHRWVNRWQPVFYQRWYYGYPYLGTWRGNYWYY”, the protein production entry was “failed”.

With “MNIRHIRNATAVIEYGGKRILIDPMLSDKGSFDPFPNSPRQDQKNPLVELPMAIEDIINDIDLVILTHLHIDHFDPKAIEVLPKDIKIYAQNEEDASEVERYGFTNVSVFNDVTHIGEIELIKTDAQHGHGEILKMTGHVHGMILKHSEEPTLYLAADTVWFEGVEKALKTYQPDVVVLNGGANQFFEGGPLVMDEHDVLKVANTLPLAQIVVVHMEAVNHWHLSRKELNEFINSNDLGNRVVVPNDGELLTFEK”, the protein production result is listed as “failed”. The value for “MNIRRARPDDLMNMQHCNLLCLPENYQMKYYFYHGLSWPQLSYIAEDEDGKIVGYVLAKMEEDPDDVPHGHITSLAVKRSHRRLGLAQKLMDQASRAMIENFSAKYVSLHVRKSNRAALHLYSNTLNFQVSEVEPKYYADGEDAYAMKRDLSQMADELRRQLVLKKGRYVVLGSKENQGSTLPGSEEASQQENLAGGDSGSDGKDSTDVQDSLQTLGSAS” was “failed”; that for “MNITLGYIDPVAFSLGPIQVRWYGIIIACGILLGYFIAQAALKQVGLHKDTLIDIIFYSAIVGFIVARIYFVTFQWPYYMNHLSEIPKIWHGGIAIHGGLIGGLISGIIVCKIKNLHPFQIGDIVAPSIILAQGIGRWGNFMNHEAHGGPVSRAFLEHLHLPDFIIRNMYIEGQYYHPTFLYESIWDVIGFVILITLRKRLKLGETFFGYLIWYSVGRFFVEAMRTDSLMLTSHIRVAQLVSVVLILISVIFVIYRRVKYQPIKYENSGPLTWPIKKAK” was “failed”; that for “MNITLLKSKIHRASVTEARLDYIGSISIDEKLLQASGILEYEKVQVVNVNNGARFETYTIATQEEGVVCLNGAAARLAEVGDKVIIMSYADFNEEEAKTFKPKVVFVDENNTATKITNYEKHGAIF” was “not failed”. The value for “MNITVNDRECSAQVGDRLLDIARANHSHIGYFCGGNAICQTCYVRVLEGAELLSPMSDAEKAMLSDKLIKEGTRMACQTLIEKPGKITVLSEVEAAKRLTLENPLQLPAYMGKMGWEAAVKFTDTIAFQARREQGEHALEPTQLLHDVAAAISDAIQLVFNAVQAAFGVNRSTDKPEIKADKGCGCDTTLLAKTATCDNGHGRIVSPEVLQLHQERSAVCN” was “failed”; that for “MNIVENEICIRTLIDDDFPLMLKWLTDERVLEFYGGRDKKYTLESLKKHYTEPWEDEVFRVIIEYNNVPIGYGQIYKMYDELYTDYHYPKTDEIVYGMDQFIGEPNYWSKGIGTRYIKLIFEFLKKERNANAVILDPHKNNPRAIRAYQKSGFRIIEDLPEHELHEGKKEDCYLMEYRYDDNATNVKAMKYLIEHYFDNFKVDSIEIIGSGYDSVAYLVNNEYIFKTKFSTNKKKGYAKEKAIYNFLNTNLETNVKIPNIEYSYISDELSILGYKEIKGTFLTPEIYSTMSEEEQNLLKRDIASFLRQMHGLDYTDISECTIDNKQNVLEEYILLRETIYNDLTDIEKDYIESFMERLNATTVFEGKKCLCHNDFSCNHLLLDGNNRLTGIIDFGDSGIIDEYCDFIYLLEDSEEEIGTNFGEDILRMYGNIDIEKAKEYQDIVEEYYPIETIVYGIKNIKQEFIENGRKEIYKRTYKD” was “failed”. For “MNIVTLLGSPRSRGISAAIAARFTDTAAGLGAQTRTFELNRLAYRGCQGCYACKKTLDHCVLTDDLAQVLDAVRGADVVVLASPVYYGDVTAQLKGFIDRTFSYLKPDYLSNPQPSRLSPKKLVFVLTQGHPDEGMFADIFPRYEGFLTWLGFVDARLIRACGFGPSTVDKVPEQYLREAEQAAREIVGQGKG”, the protein production entry is “failed”. Take “MNKDFTFTIKSSCFDENYNPSENTRITTNFANLARGKSRQENLRNTLVMMDNRFNTLAYWDNPKANRYSVELEIISVEIDIEGNGDTFPAIEILKTNIVDKKTNERIEGIVGNNFSSYVRDYDFSVLLPEHNKSHPGFSTPDNFGDLHGKLFKCFTNSKFYKDNFNKQPVICLSVSSKNTYHRTGNQHPVLGIEYQQNEPSLTDHYFERMGLQARYFMPANSVAPLAFYFSGDLLNDYTNLELISTISTMETFQKIYRPEIYNANSAAGQYYQPNLNNQDHSLTKIVYDRVERSQLAIEQGKFTEEHFIKPYKNILEQWSAHYAR”: the protein production result is on record as “not failed”. The value for “MNKEALVNRLNASAKRQKADIVIKNGKIMDVYNQEWIYEDIAITDGVIVGLGEYEGENIIDAEGQMIVPGFIDGHVHIESSMVTPIEFAKAVLPHGVTTVVTDPHEIANVSGEKGIEFMLEQARHTPLNIHFMLPSSVPAASFERSGAILKAADLKPFYEEEEVLGLAEVMDYVSVQQAEKDMVQKLLDARVAGKRIDGHLAGLSTDLINIYRTAFVLNDHEVTSKEEALDRIRRGMYVMMREGSVAKNTLNVLPAVNEKNRTPVFFCTDDKHVDDLLSEGSVNHQVKMAIQAGLNPFLAYQLGSLNAAECYGLDTKGAIAPGFDADLLFVSDLENVTVTMTMVKGQTVAEDSKAVYQDHASTAAPDQALLDSVKLAAPLNKQDFHMPIDSEQQINVIQIIPNQLETRLVQVPAPVAREFEPDTELDLLKIAVVERHKGLKETGLGVVKGFGFKSGAIATTISHDSHNIIAVGTNDEDIAAAVNKLQEIGGGLTIIKNGEELHSVPLPIAGLLSDQSAEQVNQSLLTLHDKLSLIGFTGGFNPFLTLSFLALPVIPDIKMTTTGLFDVKSFQHISLQLEHHHHHH” was “not failed”; that for “MNKEEQEDPQQEQISTVQENDPRNLQQLGMLLVSPGLDEDRLSEKMISKIKKSRDIEKNQKLLISRLSQKEEDHSGKPPTITTSPAEKTVPFKSLNHSLKRKRVPPALNFSDIQASSHLHGSKSAPPNITRFPQHKNSLRVRYMGRMAPTNQDYHPSVANSYMTATYPYPYTGLPPVPCYPYSSTPTQTHAYEGYYSPMYPGPLYNNGIIPADYHAKRKKLAGRSPHLEDLTSRKRTFVSKHHNGDPIISKTDEDIECSVTKNSLSEGASLNDDADDDNDKERIIIGEISLYDDVFKFEVRDDKNDYMKACETIWTEWHNLKK” was “failed”.
